The text below walks through data of patent publication US20150093758.

For data set [1], the system named is PSA anchor ligand biotin-PEG5-cyclic(CVFAHNYDYLVC).
The test system of data set [2] is PSA capture agent biligand biotin-PEG5-cyclic(CVFAHNYDYLVC)-Tz5-Gllffk.

Consider “human prostate specific antigen (free PSA, Scripps Laboratories #P0725)”, for which the enzyme activity of PSA against the chromogenic substrate Suc-Arg-Pro-Tyr-pNA (absorbance at 405 nm) in data set [1] and in data set [2] was 3 fold throughout.
